Results: article PMC3531455, “PTH1 Receptor Is Involved in Mediating Cellular Response to Long-Chain Polyunsaturated Fatty Acids” (PLoS ONE, 2012)

Tests used:
[1] = biological target: Parathyroid hormone type 1 receptor (PTH1R) (human) (UniProt Q03431); assay: fluorescence polarisation; fluorescence anisotropy, competitive displacement of 2 nM PTH(1–34)^TMR from PTH1R membrane fractions of transfected HEK293 cells; DPBS, 4 hours, room temperature; 96-well plates, 150 µL; IC50 converted to Ki by the Cheng-Prusoff equation
PTH1 receptor (PTH1R) [2] = biological target: T1, PTH1 receptor (PTH1R) (Homo sapiens, UniProt Q03431); assay: competitive fluorescence anisotropy displacement of PTH([…])TMR; assay type: binding
T1 construct: PTH1R in membrane fractions of transfected HEK293 cells
T1 sequence (Q03431 27-593): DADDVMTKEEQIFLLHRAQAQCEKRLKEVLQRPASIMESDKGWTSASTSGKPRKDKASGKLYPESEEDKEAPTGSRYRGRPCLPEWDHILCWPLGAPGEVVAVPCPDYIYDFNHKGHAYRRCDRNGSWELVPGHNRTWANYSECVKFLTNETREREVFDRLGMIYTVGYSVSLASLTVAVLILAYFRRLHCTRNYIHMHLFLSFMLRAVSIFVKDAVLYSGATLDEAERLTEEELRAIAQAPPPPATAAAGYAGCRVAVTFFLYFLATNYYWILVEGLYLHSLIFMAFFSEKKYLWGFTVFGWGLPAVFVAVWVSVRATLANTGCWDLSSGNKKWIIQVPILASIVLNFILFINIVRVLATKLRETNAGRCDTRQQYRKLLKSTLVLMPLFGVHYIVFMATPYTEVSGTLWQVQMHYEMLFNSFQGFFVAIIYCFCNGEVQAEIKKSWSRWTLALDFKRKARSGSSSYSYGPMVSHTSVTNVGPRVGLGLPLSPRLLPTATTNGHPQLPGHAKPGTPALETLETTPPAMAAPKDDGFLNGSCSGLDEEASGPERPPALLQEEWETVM

PTH1 receptor (PTH1R) [3] = biological target: T1, PTH1 receptor (PTH1R); assay: competitive fluorescence anisotropy displacement of PTH([…])TMR; supported by PTH-CC FRET conformational sensor; assay type: binding
[4] = biological target: Parathyroid hormone type 1 receptor (PTH1R) (human) (UniProt Q03431)

## Human [Lys-13(Nε-5-carboxy-TMR)]PTH(1–34)NH2 (peptide)
[1]
  Ki: 4.66 nM

## CC/C=C\C/C=C\C/C=C\C/C=C\C/C=C\C/C=C\CCC(=O)O [DHA, docosahexaenoic acid]
PTH1 receptor (PTH1R) [2]
  Ki: 0.54 ± 0.16 nM

## CC/C=C\C/C=C\C/C=C\C/C=C\C/C=C\CCCC(=O)O [EPA, eicosapentaenoic acid]
PTH1 receptor (PTH1R) [3]
  Ki: 0.69 ± 0.25 nM

## Human PTH(1–34) (peptide)
[4]
  ERK1/2 phosphorylation (Emax = pERKmax/ERK, western blot) in HEK293 cells transfected with PTH1R, PTH(1–34) dose response, 5 minutes; no significant increase in untransfected HEK293 cells: 3.5 pERK/ERK
[1]
  IC50: 3.43 nM
  Ki: 2.4 nM
